The values that follow are results of earlier work, collected in patent US7858117B2, “Amphoteric liposomes and their use” (Novosom AG, priority 2002, dated 2010).

In the case of lysozyme, the pI (protein) is on record as 11.5.

In the case of cholesterol hemisuccinate, the “pK value of the carboxyl group” value (state of the art) is “approximately 4.5”.
